167 variants from the RNAGym collection of RNA variant scans (doi:10.7554/elife.80360) can be followed below.

Sequences and labels used below:
B1: CPEB3 Ribozyme (parent)
chain: GGGGGCCACAGCAGAAGCGUUCACGUCGCGGCCCCUGUCAGAUUCUGGUGAAUCUGCGAAUUCUGCUGU

Variants of B1 are the subject of this series. Briefly: self-cleavage, relative activity (ratio to wild type); higher = more cleavage; co-transcriptional.
In the case of U20A C35G, the self-cleavage worked out at 0.183.

Take U20A C35A: the self-cleavage amounted to 0.115.

As to G19A U44G, the self-cleavage stood at 0.158.

Regarding G19A U44A, the self-cleavage turned out to be 0.172.

For G19C U26G, the self-cleavage came out at 0.109.

Consider G19C U26A, for which the self-cleavage was found to be 0.13.

For G19C U26C, the self-cleavage stood at 0.153.

As for G19C C54G, the self-cleavage came out at 0.163.

On to G19C C54A, for which the self-cleavage worked out at 0.158.

In the case of G19C C54U, the self-cleavage was 0.113.

Consider G19C U64C, for which the self-cleavage was 0.123.

Take G19U C57G: the self-cleavage worked out at 0.218.

In the case of G19U C57U, the self-cleavage worked out at 0.21.

Consider G19U C24G, for which the self-cleavage is 0.121.

As to G19C G65A, the self-cleavage was 0.127.

Turning to G19C G65U, the self-cleavage amounted to 0.133.

For G19C G65C, the self-cleavage was 0.12.

G19U G37C: the self-cleavage was 0.175.

In the case of G19U G37A, the self-cleavage worked out at 0.19.

As to G19U G37U, the self-cleavage came out at 0.199.

As to G19C U62G, the self-cleavage came out at 0.162.

Take G19A U61C: the self-cleavage turned out to be 0.164.

G19A U61A: the self-cleavage was determined as 0.16.

As to G19C G41C, the self-cleavage was 0.17.

On to G19C G41A, for which the self-cleavage was 0.142.

G19C G58U: the self-cleavage turned out to be 0.19.

With G19C G58C, the self-cleavage worked out at 0.12.

In the case of G19A G30U, the self-cleavage was determined as 0.147.

As for G19A G30A, the self-cleavage amounted to 0.144.

As for G19A G30C, the self-cleavage came out at 0.166.

As to G19C U55C, the self-cleavage is 0.163.

Take G19C U55G: the self-cleavage amounted to 0.172.

For G19C U55A, the self-cleavage worked out at 0.132.

For G19A C57G, the self-cleavage turned out to be 0.137.

For G19A C57U, the self-cleavage is 0.178.

Consider G19A C57A, for which the self-cleavage came to 0.133.

Consider G19U G41A, for which the self-cleavage is 0.181.

As to G19U G41U, the self-cleavage was 0.157.

Regarding G19U G41C, the self-cleavage is 0.16.

As for G19U C33G, the self-cleavage is 0.203.

With G19U C33U, the self-cleavage worked out at 0.519.

For the variant G19U C33A, the self-cleavage is 0.101.

As for G19A G31C, the self-cleavage was found to be 0.143.

With G19A G31U, the self-cleavage came to 0.146.

For the variant G19C C32A, the self-cleavage was determined as 0.146.

For G19C C32U, the self-cleavage is 0.198.

For G19A C63G, the self-cleavage worked out at 0.152.

Take G19A C63A: the self-cleavage was 0.0882.

In the case of U20A A52U, the self-cleavage was 0.143.

On to U20A A52C, for which the self-cleavage was 0.0922.

For the variant U20A A52G, the self-cleavage came out at 0.117.

As to G19C C66A, the self-cleavage was found to be 0.114.

Consider G19C C66U, for which the self-cleavage worked out at 0.105.

As to G19C C66G, the self-cleavage worked out at 0.172.

For the variant G19C C29A, the self-cleavage is 0.164.

Take G19C C29G: the self-cleavage came out at 0.1.

For the variant G19C C39A, the self-cleavage came out at 0.155.

Regarding G19C A40G, the self-cleavage turned out to be 0.194.

Consider G19C A40U, for which the self-cleavage was determined as 0.0999.

Turning to U20A C22A, the self-cleavage was determined as 0.152.

For the variant U20A C22G, the self-cleavage was 0.119.

Consider U20A C22U, for which the self-cleavage was determined as 0.176.

With U20A C66G, the self-cleavage came to 0.133.

Turning to U20A C66U, the self-cleavage is 0.205.

U20A C66A: the self-cleavage amounted to 0.154.

U20A C39A: the self-cleavage amounted to 0.169.

As to U20A C39U, the self-cleavage came out at 0.125.

As for G19A U20G, the self-cleavage was 0.111.

G19U C32A: the self-cleavage is 0.281.

G19U C32G: the self-cleavage worked out at 0.157.

Regarding G19A G25A, the self-cleavage is 0.0763.

Consider G19A G25U, for which the self-cleavage was determined as 0.164.

As for G19A G25C, the self-cleavage was found to be 0.151.

Regarding G19C A59G, the self-cleavage turned out to be 0.175.

In the case of G19U A23C, the self-cleavage is 0.333.

In the case of G19U A23U, the self-cleavage is 0.494.

Turning to G19A U53A, the self-cleavage worked out at 0.174.

In the case of G19A U67C, the self-cleavage stood at 0.177.

Regarding G19A U67G, the self-cleavage came out at 0.205.

As to G19U C63A, the self-cleavage stood at 0.179.

Consider U20A G28C, for which the self-cleavage worked out at 0.14.

For the variant U20A G28U, the self-cleavage amounted to 0.182.

For U20A G28A, the self-cleavage came out at 0.12.

G19U C45G: the self-cleavage was found to be 0.4.

As to G19U C45U, the self-cleavage amounted to 0.469.

Regarding G19U G50C, the self-cleavage is 0.458.

Regarding G19U G50A, the self-cleavage was 0.543.

For G19C, the self-cleavage was 0.154.

On to G19U, for which the self-cleavage is 0.644.

U20A A59G: the self-cleavage came out at 0.125.

For U20A A59C, the self-cleavage is 0.0876.

As for G19C U38G, the self-cleavage was determined as 0.185.

In the case of G19U C22A, the self-cleavage worked out at 0.14.

In the case of G19U C22G, the self-cleavage amounted to 0.164.

As for G19U C22U, the self-cleavage was found to be 0.107.

For the variant U20A G30A, the self-cleavage worked out at 0.192.

As for U20A G30U, the self-cleavage stood at 0.109.

Consider U20A G30C, for which the self-cleavage was determined as 0.141.

In the case of G19A G28U, the self-cleavage was found to be 0.132.

G19A G28A: the self-cleavage was found to be 0.152.

G19A G28C: the self-cleavage was found to be 0.216.

Turning to U20A G31C, the self-cleavage came out at 0.0954.

In the case of U20A G31U, the self-cleavage was 0.17.

Turning to U20A G31A, the self-cleavage came to 0.135.

For the variant G19U U36G, the self-cleavage worked out at 0.222.

For G19A U64C, the self-cleavage amounted to 0.159.

With G19U G31U, the self-cleavage stood at 0.168.

In the case of G19U G31C, the self-cleavage was found to be 0.163.

Take G19U G31A: the self-cleavage was 0.258.

For the variant G19U C29G, the self-cleavage came out at 0.175.

As for G19U C29A, the self-cleavage worked out at 0.161.

As to G19U A51U, the self-cleavage was found to be 0.476.

G19U A51G: the self-cleavage turned out to be 0.538.

For the variant U20A C24A, the self-cleavage came to 0.203.

As for U20A C24U, the self-cleavage was 0.0896.

With G19C U44A, the self-cleavage is 0.185.

Consider G19C U44G, for which the self-cleavage worked out at 0.164.

Regarding G19U G25C, the self-cleavage worked out at 0.122.

Take G19U G25U: the self-cleavage was determined as 0.14.

For G19U G25A, the self-cleavage was 0.177.

For the variant U20A C63A, the self-cleavage amounted to 0.129.

As for U20A C63G, the self-cleavage came out at 0.13.

For the variant G19A G48A, the self-cleavage was found to be 0.144.

On to G19A G48U, for which the self-cleavage was found to be 0.227.

Regarding G19C G37A, the self-cleavage was determined as 0.225.

In the case of G19C G37C, the self-cleavage was determined as 0.183.

Take G19C G37U: the self-cleavage stood at 0.143.

On to G19U C35G, for which the self-cleavage came out at 0.199.

Regarding G19U C39A, the self-cleavage stood at 0.188.

Regarding G19U C39G, the self-cleavage stood at 0.264.

Consider G19U C39U, for which the self-cleavage came out at 0.22.

For the variant G19C U61C, the self-cleavage came to 0.161.

Take G19C U61G: the self-cleavage was 0.116.

Regarding G19U U55C, the self-cleavage was found to be 0.191.

Turning to G19C G30C, the self-cleavage turned out to be 0.129.

As to G19C G30A, the self-cleavage came out at 0.159.

For the variant G19C G50U, the self-cleavage amounted to 0.186.

Consider G19C G50A, for which the self-cleavage worked out at 0.147.

In the case of G19A G56C, the self-cleavage amounted to 0.0715.

For G19A G56A, the self-cleavage was 0.104.

With U20A C54G, the self-cleavage was 0.194.

U20A C54U: the self-cleavage worked out at 0.124.

For the variant G19U G58A, the self-cleavage was determined as 0.352.

Consider G19U G58U, for which the self-cleavage came out at 0.553.

Consider G19U A52U, for which the self-cleavage came to 0.474.

Turning to G19U A52C, the self-cleavage amounted to 0.432.

In the case of G19U A52G, the self-cleavage was 0.589.

In the case of G19U A59U, the self-cleavage is 0.158.

As for G19U A59G, the self-cleavage is 0.66.

As for G19U G68C, the self-cleavage amounted to 0.791.

On to G19U G68U, for which the self-cleavage was found to be 0.738.

In the case of G19A U62G, the self-cleavage came to 0.169.

Turning to G19A U62A, the self-cleavage is 0.204.

For the variant G19U U43C, the self-cleavage is 0.333.

Take G19U U43A: the self-cleavage was found to be 0.202.

With G19U U43G, the self-cleavage was 0.223.

For the variant G19U A42U, the self-cleavage came to 0.327.

For G19U A42G, the self-cleavage turned out to be 0.326.

For G19U A42C, the self-cleavage amounted to 0.269.

For G19C G28A, the self-cleavage amounted to 0.147.

Turning to G19C G28C, the self-cleavage was 0.131.

G19C G28U: the self-cleavage worked out at 0.142.

As for G19C G56C, the self-cleavage is 0.169.

As to G19C G56A, the self-cleavage was 0.16.

Take G19U A60G: the self-cleavage was found to be 0.289.

As to G19U A60U, the self-cleavage came to 0.168.

For the variant G19C A60C, the self-cleavage was 0.15.
